Laboratory results: IntAct's records for PubMed 18256285

target: sdcb1_human SDCBP (UniProt O00560)
UniProt O00560, sequence (O00560 whole entry): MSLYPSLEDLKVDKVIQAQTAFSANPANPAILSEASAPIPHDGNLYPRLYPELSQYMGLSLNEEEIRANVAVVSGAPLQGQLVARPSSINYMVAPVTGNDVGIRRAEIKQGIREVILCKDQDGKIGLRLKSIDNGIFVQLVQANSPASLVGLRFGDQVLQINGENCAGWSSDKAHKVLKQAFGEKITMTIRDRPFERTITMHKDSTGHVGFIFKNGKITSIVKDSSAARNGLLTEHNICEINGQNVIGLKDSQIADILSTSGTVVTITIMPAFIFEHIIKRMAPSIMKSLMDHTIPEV

Row | effect of a mutation on the interaction | Substance
1 | disrupting interaction | Frizzled-7 (Homo sapiens) (from UniProt O75084) T572A
2 | disrupting interaction | Frizzled-7 (Homo sapiens) (from UniProt O75084) T572A;V574A
3 | decreasing interaction | Frizzled-7 (Homo sapiens) (from UniProt O75084) V574A
